B1: nwTCR-2006 (TCR, V domains shown)
V domain 1: AQSVTQLDSHVSVSEGTPVLLRCNYSSSYSPSLFWYVQHPNKGLQLLLKYTSAATLVKGINGFEAEFKKSETSFHLTKPSAHMSDAAEYFCVVSITGFQKLVFGTGTRLLVSP
V domain 2: GAVVSQHPSRVICKSGTSVKIECRSLDFQATTMFWYRQFPKQSLMLMATSNEGSKATYEQGVEKDKFLINHASLTLSTLTVTSAHPEDSSFYICSATEDNEKLFFGSGTQLSVLE
notes: TCR on T cells
B2: nwTCR-2157 (TCR, V domains shown)
V domain 1: QKEVEQNSGPLSVPEGAIASLNCTYSDRGSQSFFWYRQYSGKSPELIMFIYSNGDKEDGRFTAQLNKASQYVSLLIRDSQPSDSATYLCAVPGGTSYGKLTFGQGTILTVHP
V domain 2: DTAVSQTPKYLVTQMGNDKSIKCEQNLGHDTMYWYKQDSKKFLKIMFSYNNKELIINETVPNRFSPKSPDKAHLNLHINSLELGDSAVYFCASSQGISGNTIYFGEGSWLTVVE
notes: TCR on T cells
B3: nwTCR-2169 (TCR, V domains shown)
V domain 1: SQQGEEDPQALSIQEGENATMNCSYKTSINNLQWYRQNSGRGLVHLILIRSNEREKHSGRLRVTLDTSKKSSSLLITASRAADTASYFCATLTLNDYKLSFGAGTTVTVRA
V domain 2: EAQVTQNPRYLITVTGKKLTVTCSQNMNHEYMSWYRQDPGLGLRQIYYSMNVEVTDKGDVPEGYKVSRKEKRNFPLILESPSPNQTSLYFCATQWASGSTDTQYFGPGTRLTVLE
notes: TCR on T cells
B4: nwTCR-2159 (TCR, V domains shown)
V domain 1: QQPVQSPQAVILREGEDAVINCSSSKALYSVHWYRQKHGEAPVFLMILLKGGEQKGHDKISASFNEKKQQSSLYLTASQLSYSGTYFCGTESGRGSTLGRLYFGRGTQLTVWP
V domain 2: DSGVTQTPKHLITATGQRVTLRCSPRSGDLSVYWYQQSLDQGLQFLIQYYNGEERAKGNILERFSAQQFPDLHSELNLSSLELGDSALYFCASSPWTSGSYEQYFGPGTRLTVTE
notes: TCR on T cells
B5: nwTCR-3271 (TCR, V domains shown)
V domain 1: DQQVKQNSPSLSVQEGRISILNCDYTNSMFDYFLWYKKYPAEGPTFLISISSIKDKNEDGRFTVFLNKSAKHLSLHIVPSQPGDSAVYFCAAKPDKLIFGTGTRLQVFP
V domain 2: SAVISQKPSRDICQRGTSLTIQCQVDSQVTMMFWYRQQPGQSLTLIATANQGSEATYESGFVIDKFPISRPNLTFSTLTVSNMSPEDSSIYLCSVWGAGLAIYNEQFFGPGTRLTVLE
notes: TCR on T cells
B6: nwTCR-1954 (TCR, V domains shown)
V domain 1: QKEVEQNSGPLSVPEGAIASLNCTYSDRGSQSFFWYRQYSGKSPELIMSIYSNGDKEDGRFTAQLNKASQYVSLLIRDSQPSDSATYLCAVLRSNDYKLSFGAGTTVTVRA
V domain 2: EAQVTQNPRYLITVTGKKLTVTCSQNMNHEYMSWYRQDPGLGLRQIYYSMNVEVTDKGDVPEGYKVSRKEKRNFPLILESPSPNQTSLYFCASSPGTSGNEQFFGPGTRLTVLE
notes: TCR on T cells
B7: nwTCR-3273 (TCR, V domains shown)
V domain 1: SQELEQSPQSLIVQEGKNLTINCTSSKTLYGLYWYKQKYGEGLIFLMMLQKGGEEKSHEKITAKLDEKKQQSSLHITASQPSHAGIYLCGAVPINDYKLSFGAGTTVTVRA
V domain 2: EAQVTQNPRYLITVTGKKLTVTCSQNMNHEYMSWYRQDPGLGLRQIYYSMNVEVTDKGDVPEGYKVSRKEKRNFPLILESPSPNQTSLYFCASSIDSGSSYNEQFFGPGTRLTVLE
notes: TCR on T cells
B8: nwTCR-3125 (TCR, V domains shown)
V domain 1: QKEVEQNSGPLSVPEGAIASLNCTYSDRVSQSFFWYRQYSGKSPELIMSIYSNGDKEDGRFTAQLNKASQYVSLLIRDSQPSDSATYLCALVSGTYKYIFGTGTRLKVLA
V domain 2: DTAVSQTPKYLVTQMGNDKSIKCEQNLGHDTMYWYKQDSKKFLKIMFSYNNKELIINETVPNRFSPKSPDKAHLNLHINSLELGDSAVYFCASSPGLAYEQYFGPGTRLTVTE
notes: TCR on T cells
B9: nwTCR-3272 (TCR, V domains shown)
V domain 1: QKEVEQNSGPLSVPEGAIASLNCTYSDRGSQSFFWYRQYSGKSPELIMSIYSNGDKEDGRFTAQLNKASQYVSLLIRDSQPSDSATYLCAVPSGNMLTFGGGTRLMVKP
V domain 2: DVKVTQSSRYLVKRTGEKVFLECVQDMDHENMFWYRQDPGLGLRLIYFSYDVKMKEKGDIPEGYSVSREKKERFSLILESASTNQTSMYLCASSSATSGSGEQYFGPGTRLTVTE
notes: TCR on T cells
B10: nwTCR-3274 (TCR, V domains shown)
V domain 1: QKEVEQNSGPLSVPEGAIASLNCTYSDRGSQSFFWYRQYSGKSPELIMSIYSNGDKEDGRFTAQLNKASQYVSLLIRDSQPSDSATYLCAVVSGGYNKLIFGAGTRLAVHP
V domain 2: EPEVTQTPSHQVTQMGQEVILRCVPISNHLYFYWYRQILGQKVEFLVSFYNNEISEKSEIFDDQFSVERPDGSNFTLKIRSTKLEDSAMYFCASSEGWGGTEAFFGQGTRLTVVE
notes: TCR on T cells
B11: nwTCR-3173 (TCR, V domains shown)
V domain 1: SQQGEEDPQALSIQEGENATMNCSYKTSINNLQWYRQNSGRGLVHLILIRSNEREKHSGRLRVTLDTSKKSSSLLITASRAADTASYFCATYANDYKLSFGAGTTVTVRA
V domain 2: EAQVTQNPRYLITVTGKKLTVTCSQNMNHEYMSWYRQDPGLGLRQIYYSMNVEVTDKGDVPEGYKVSRKEKRNFPLILESPSPNQTSLYFCASSAGTGGFVGYTFGSGTRLTVVE
notes: TCR on T cells

molecular target: T1, labeled peptide-MHC (HLA-A*02:01) tetramer (…-HLA-A*02:01 tetramer) (human); assay: pMHC tetramer staining of edited CD8+ T cells, flow cytometry
T1 construct: Labeled tetramer used for flow cytometry staining; also called pMHC; pMHC tetramer

Binding result, binds:
B1
B2
B3
B4

molecular target: T1, labeled peptide-MHC (HLA-A*02:01) …; assay: tetramer staining of sorted T cell clones, flow cytometry

Binding result, binds:
B5
B6
B7
B8
B9
B10
B11
